From PMC6479007, “Phycobilisomes Harbor FNRL in Cyanobacteria” (mBio, 2019)

B1: ferredoxin-NADP+ oxidoreductase, large isoform (FNRL) (enzyme, UniProt Q55318 1-413, looked up)
chain: MYSPGYVATSSRQSDAGNRLFVYEVIGLSQSTMTDGLDYPIRRSGSTFITVPLKRMNQEMRRITRMGGKIVSIKPLEGDSPLPHTEGIAKPSQSEGSGSEAVANPAPESNKTMTTTPKEKKADDIPVNIYRPKTPYIGKVLENYPLVREGAIGTVQHLTFDLSAGDLRYLEGQSIGIIPPGEDDKGKPHKLRLYSIASTRHGDFGDDKTVSLCVRQLEYQNEAGETVQGVCSTYLCNIKEGDDIAITGPVGKEMLLPPDEDANIVMLATGTGIAPFRAFLWRMFKEQHEDYKFKGLAWLIFGIPKSENILYKDDLEKMAAEFPDNFRLTYAISREQQNAEGGRMYIQHRVAENAEELWNLMQNPKTHTYMCGLKGMEPGIDEAFTALAEQNGKEWTTFQREMKKEHRWHVETY
modifications: acetylation on the N terminus in a part of the molecules (6% in CpcG-PBS, 12% in CpcL-PBS)
notes: ferredoxin-NADP+ oxidoreductase, large isoform FNRL, Synechocystis sp; PCC 6803, slr1643; The small FNR isoform of the same gene is not meant; also called large FNR; Fd-NADP+ oxidoreductase; source: endogenous, Synechocystis 6803 wild-type and ΔAB cells; isolated with the phycobilisomes on a sucrose gradient
B2: CpcB (phycocyanin beta subunit) (natural protein, UniProt Q54714 1-172, looked up)
chain: MFDVFTRVVSQADARGEYLSGSQLDALSATVAEGNKRIDSVNRITGNASAIVSNAARALFAEQPQLIQPGGNAYTSRRMAACLRDMEIILRYVTYATFTGDASVLEDRCLNGLRETYVALGVPGASVAAGVQKMKEAALDIVNDPNGITRGDCSAIVAEIAGYFDRAAAAVA
notes: phycocyanin beta subunit CpcB, Synechocystis sp; PCC 6803; N-terminal peptide 1MFDVFTR found cross-linked through the primary amine of M1; In the assay it stood inside the assembled phycobilisome; also called PC beta subunit; source: endogenous, Synechocystis 6803 wild-type and ΔAB cells; in isolated CpcG-PBS and CpcL-PBS
B3: CpcA (phycocyanin alpha subunit) (natural protein)
chain: not shown
notes: phycocyanin alpha subunit CpcA, Synechocystis sp; PCC 6803; cross-linked through its N-terminal M1; In the assay it stood inside the assembled phycobilisome; also called PC alpha subunit; source: endogenous, Synechocystis 6803 cells; in isolated phycobilisomes

Legend:
[1] = target: T1, CpcL-PBS (CpcL-type phycobilisome, without allophycocyanin) (Synechocystis sp. strain PCC 6803 …, UniProt Q54715 1-162; Q54714 1-172; P73203 1-291; P73204 1-273; P73202 1-83; P74625 …); experiment: co-sedimentation; step-gradient sucrose density ultracentrifugation (370,000 x g overnight) of broken cells in 0.8 M K-phosphate pH 7.5 after 2% Triton X-100; blue bands analysed by SDS-PAGE (CBB R-250) and by trypsin digestion with LC-MS/MS label-free quantification (PEAKS; Protein Metrics); details: partners not purified
T1 construct: phycocyanin alpha subunit CpcA, Synechocystis sp; PCC 6803; phycocyanin beta subunit CpcB, Synechocystis sp; rod linker protein CpcC1, Synechocystis sp; rod linker protein CpcC2, Synechocystis sp; rod-capping linker CpcD, Synechocystis sp; PCC 6803, ssl3093; CpcL (formerly CpcG2), Synechocystis sp; PCC 6803, sll1471; the first methionine is removed posttranslationally, threonine is the first …

[2] = target: B1; experiment: cross-linking; isolated CpcG-PBS and CpcL-PBS (partners co-purified in the native complex), 0.1 uM in 0.2 M K-phosphate, 1:1 BS3-H12/D12, 10 min in the dark at room temperature, cross-linker/PBS 10:1, 50:1 and 100:1; LysC and trypsin digestion, LC-MS/MS, ICC-CLASS and pLink; details: both partners purified

Binder: B1
- fold higher FNRL content than in CpcG-PBS, normalised to CpcC1 [1]: 2.4 fold
- ratio of FNRL content, CpcL-PBS to CpcG-PBS (manual quantification, Protein Metrics) [1]: 1.9
- ratio of FNRL content, CpcL-PBS/CpcG-PBS (PEAKS label-free quantification) [1]: 1.99

Binder: B2
- binding result [2]: binds

Binder: B3
- binding result [2]: binds
